Measured values published in patent US8440629B2, “Cyclic receptor-associated protein (RAP) peptides” (Raptor Pharmaceuticals Inc., priority 2007, dated 2013).

Tests used:
VLDLR CR6-8 = target: T1, VLDLR CR6-8 (Homo sapiens, UniProt P98155); assay: Solid phase binding assay; conditions: 80 nM ligand, FIG. 7
T1 construct: made in house; host or cells: E. coli BL21(DE3) CodonPlus-RIPL, pET30(+)a
Procedure: (§1) All expression constructs were sequenced to verify insert sequences and the junctions with the expression vector. Each plasmid was then used to transform BL21(DE3) CodonPlus-RIPL™ cells (Stratagene). Expression of the CR proteins was induced in logarithmic growth-phase cells grown in LB supplemented with 34 μg/mL chloramphenicol, 12.5 μg/mL tetracycline and 15 μg/mL kanamycin by addition of 2 mM IPTG, followed by reduction in incubator temperature to 32° C. and incubation for 4 hours with agitation at […]. Cells were pelleted and resuspended, at 3.5% of the initial culture volume in 10 mM Tris-HCl pH 8, 100 mM NaH2PO4, 8M Urea. Resuspended cells were then frozen in liquid nitrogen, rapidly thawed to 37° C. and sonicated for 10 seconds at an amplitude setting of 60 using a Cole-Parmer CP-130 ultrasonic processor connected to a 3 mm probe. This procedure was repeated three times to effect complete lysis of the cells. Lysates were clarified by spinning twice at 10,000×g in a Sorvall RC-5 centrifuge for 20 minutes at 15° C. Ni-NTA columns (Qiagen Superflow™, 1.5 mL packed bed) were used to purify the CR proteins. Briefly, the resin was equilibrated with two column volumes of lysis buffer. The clarified lysate was then supplemented to 20 mM with imidazole and incubated with the equilibrated Ni-NTA resin overnight at 4° C. The flow-through was discarded. Columns were washed once with one column volume of lysis buffer and then three times with one column volume of TBS pH 8 supplemented with 20 mM imidazole. CR-loaded beads were then removed from the column and CR proteins eluted by incubating at room temperature for 30 minutes with one column volume of the same buffer containing 200 mM imidazole. This step was repeated once and the eluates pooled. Eluted CR protein solutions were then supplemented to 2 M urea, 10 mM CaCl2 and 5 mM DTT. Purified, denatured CR protein solutions were transferred to 3,500 MWCO Slide-A-Lyzer™ (Pierce) cassettes and sequentially dialyzed against a 200-fold excess of 50 mM Tris-HCl pH 8.5, 10 mM CaCl2, 1 mM reduced glutathione, 0.5 mM oxidized glutathione at room temperature overnight and then against TBS supplemented with 5 mM CaCl2 at 4° C. overnight. Protein concentrations were determined by Bradford assay and purity confirmed by SDS-PAGE with Coomassie Brilliant Blue staining.
(§2) Purified, refolded CR protein (1 μg) was bound to Nunc Maxisorp™ 96-well plates in TBS pH 8 supplemented with 5 mM CaCl2 (TBSC) overnight at 4° C. Wells were washed with TBSC and then blocked with TBSC containing 2% bovine serum albumin (BSA). RAP ligands were then incubated with the immobilized receptor at a range of concentrations for 2 hours in the above blocking buffer supplemented with 0.05% Tween-20 at room temperature. Control wells contained no added ligand. As an additional control, to determine whether the absence of calcium affected binding, 10 mM EGTA was included in the incubation medium for some samples. Wells were washed with TBSTC and bound ligands detected with polyclonal anti-RAP (BP41/42, 1:1,000, BioMarin). Excess primary antibody was removed and wells washed before incubation with the secondary antibody, HRP-conjugated goat anti rabbit IgG (Bio-Rad). After washing, TMB substrate solutions (Bio-Rad) were added to detect HRP. Color development was stopped with 1N HCl. Absorption at 450 nm was measured with a microplate spectrophotometer (Molecular Devices). Data were plotted and Kd values derived by non-linear regression with the assumption of single-site binding (GraphPad Prism).
(§3) From the large number of CR pairs with unique combinations of amino acids at A, C, A′ and C′ within the calcium-binding loop of each CR, CR pairs or triplets were selected to test their binding to RAP d3 (FIG. 2). An additional pair derived from the FDC-8D6 protein was tested, designated 8D6 CR12, having the sequence ([…]) (SEQ ID NO: 91). […]

VLDLR CR78 = target: T2, VLDLR CR78 (Homo sapiens, UniProt P98155); assay: Solid phase binding assay
T2 construct: a CR pair from VLDLR (CR78); made in house; host or cells: E. coli BL21(DE3) CodonPlus-RIPL, pET30(+)a
Procedure: as §1, §2, §3

MAT CR12 = target: T3, MAT CR12 (Homo sapiens, UniProt Q9Y5Y6); assay: Solid phase binding assay; conditions: 80 nM ligand, FIG. 7
T3 construct: termed MAT CR12 (ST14 CR12), amino acids 452-524; made in house; host or cells: E. coli BL21(DE3) CodonPlus-RIPL, pET30(+)a
T3 sequence (Q9Y5Y6 452-524): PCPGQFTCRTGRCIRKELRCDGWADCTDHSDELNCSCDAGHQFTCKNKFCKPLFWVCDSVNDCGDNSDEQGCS
Procedure: as §1, §2, §3

MAT CR23 [1] = target: T4, MAT CR23 (Homo sapiens, UniProt Q9Y5Y6); assay: Solid phase binding assay; conditions: 80 nM ligand, FIG. 7
T4 construct: made in house; host or cells: E. coli BL21(DE3) CodonPlus-RIPL, pET30(+)a
T4 sequence (Q9Y5Y6 487-566): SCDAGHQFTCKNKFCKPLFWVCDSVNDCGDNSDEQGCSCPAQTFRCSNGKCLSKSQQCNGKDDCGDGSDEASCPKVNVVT
Procedure: as §1, §2, §3

the other CR pairs = assay: Binding at 80 nM to fourteen CR pairs or triplets (FIG. 7); set-up: species or system human; conditions: 80 nM ligand
Procedure: RAP d3, MegaRAP1 d3, VRAP2 d3, MatRAP1 d3 and MatRAP2 d3 were each incubated at 80 nM concentrations with LRP1 CR3-5, LRP6 CR12, LRP6 CR23, LRP6 CR1-3, LRP2 CR89, LRP2 CR2728, LRP2 CR3031, LRP2 CR3435, LRP2 CR34-36, VLDLR CR78, VLDLR CR6-8, MAT CR12, MAT CR23 and MAT CR34. Samples were tested twice, in duplicate, and values combined. Means and standard deviations were then calculated. Blank values obtained from wells incubated in the absence of ligand were used to correct absorbance data.
Purified, refolded CR protein (1 μg) was bound to Nunc Maxisorp™ 96-well plates in TBS pH 8 supplemented with 5 mM CaCl2 (TBSC) overnight at 4° C. Wells were washed with TBSC and then blocked with TBSC containing 2% bovine serum albumin (BSA). RAP ligands were then incubated with the immobilized receptor at a range of concentrations for 2 hours in the above blocking buffer supplemented with 0.05% Tween-20 at room temperature. Control wells contained no added ligand. […] Wells were washed with TBSTC and bound ligands detected with polyclonal anti-RAP (BP41/42, 1:1,000, BioMarin). […] Absorption at 450 nm was measured with a microplate spectrophotometer (Molecular Devices). […]
The apparent dissociation constant for binding of VRAP1 d3 to VLDLR CR78 was determined to be 44±9 nM. […]

[2] = tested on: LRP-deficient CHO-K1 cells; assay: Endocytosis-dependent toxicity assay (MTT); format: cell-based, Chinese hamster; conditions: 100 nM, 48 hours
Procedure: (§4) In order to determine the ability of the cyclic RAP peptides to bind receptor on the surface of a cell, binding was assessed in the presence of cultured cell lines. To determine whether cyclic RAP peptides could be bound and endocytosed by full-length LRP1 expressed on cells in culture, an endocytosis-dependent toxicity assay was used. Two cell-lines were used, Chinese hamster ovary CHO-K1 cells expressing only one high-affinity RAP-receptor, LRP1, and a mutant CHO-K1 lacking LRP1 expression was used as control. Cells were cultured in BioWhittaker UltraCHO medium (Lonza, Basel, Switzerland) supplemented with 2.5% fetal bovine serum. Cells were seeded in 12-well tissue culture plates. The biotinylated mRAPc was combined with equimolar amounts of a conjugate between streptavidin and the bacterial toxin saporin (ZAP, Advanced Targeting Systems, San Diego, Calif.). The mixture was diluted in MEM without phenol red (Mediatech, Manassas, Va.) supplemented with 10% FBS to 100 nM. Conjugated mRAPc (100 nM) and control agents (mRAPc alone, 100 nM, streptavidin-saporin alone, 100 nM, saporin alone, 1 mM) were cultured with confluent cells and cell death was assayed 48 hours later via MTT assay (Invitrogen, San Diego, Calif.).

[3] = tested on: wild-type CHO-K1 cells expressing LRP1; assay: Endocytosis-dependent toxicity assay (MTT); format: cell-based, Chinese hamster; conditions: 100 nM, 48 hours
Procedure: as §4

MAT CR23 [4] = target: T4, MAT CR23; assay: Binding of sequentially-truncated MatRAP1 (FIG. 9)
Procedure: as §2, with “Prism). […]” for “Prism).”

B1: VRAP1 d3: RAP d3 variant selected on VLDLR CR6-8: R205S, E251R, K256L, K270E, R296L, G313D (protein)
chain: LDRLSRVSHQGYSTEAEFEEPRVIDLWDLAQSANLTDKELEAFREELKHFRAKIELHNHYQKQLEIAHEELRHAESVGDGERVSRSREKHALLEGLTKELGYTVKKHLQDLSDRISRAR
Q: With B1 as the molecule, how does the “binding at 80 nM (in words)” value (VLDLR CR6-8) read?
A: bound

Q: And the “binding at 80 nM (in words)” value (VLDLR CR78; 80 nM ligand, FIG. 7)?
A: bound

Q: What about the Kd (VLDLR CR78; solid-phase assay, VLDLR CR78, read-out: apparent dissociation constant (Kd)) of the same molecule?
A: 44 ± 9 nM

B2: MatRAP1: RAP d3 variant selected on MAT CR23: E251G, K256R, K270W (protein)
chain: LDRLRRVSHQGYSTEAEFEEPRVIDLWDLAQSANLTDKELEAFREELKHFGAKIERHNHYQKQLEIAHEWLRHAESVGDGERVSRSREKHALLEGRTKELGYTVKKHLQDLSGRISRAR
Q: With B2 as the molecule, how does the “binding at 80 nM (in words)” value (MAT CR12) read?
A: bound

Q: What about the “binding at 80 nM (in words)” value (MAT CR23 [1]) of the same molecule?
A: bound

Q: What about the “binding at 80 nM to the other CR pairs (in words)” value (the other CR pairs) of the same molecule?
A: not appreciably

B3: mRAPc: minimized RAP d3, E241C, A242G, R314G, I315C, disulfide-cyclized, N-terminal biotin-GGSGG (SEQ ID NO: 99) (peptide)
chain: CGFREELKHFEAKIEKHNHYQKQLEIAHEKLRHAESVGDGERVSRSREKHALLEGRTKELGYTVKKHLQDLSGGC
modifications: disulfide cyclization; N-terminal biotin-GGSGG
Q: With B3 as the molecule, how does the “effect on cell survival (in words)” value [2] read?
A: no effect

Q: What about the “effect on cell survival (in words)” value [3] of the same molecule?
A: no effect

B4: MatRAP2: RAP d3 variant selected on MAT CR34: S232P, E239G, E246G, E251L, K256P, I266T, A267V, H268R, K270P, H273Y, R287H, H290Y, K298R, S312F (protein)
chain: LDRLRRVSHQGYSTEAEFEEPRVIDLWDLAQPANLTDKGLEAFREGLKHFLAKIEPHNHYQKQLETVREPLRYAESVGDGERVSRSHEKYALLEGRTRELGYTVKKHLQDLFGRISRAR
Q: What does the source list for B4?
A: binding at 80 nM (in words) (MAT CR12): bound; binding at 80 nM (in words) (MAT CR23 [1]): bound; binding at 80 nM to the other CR pairs (in words) (the other CR pairs): not appreciably

B5: MatRAP1 N-42: MatRAP1 with 42 amino acids removed from the N-terminus (protein)
chain: FREELKHFGAKIERHNHYQKQLEIAHEWLRHAESVGDGERVSRSREKHALLEGRTKELGYTVKKHLQDLSGRISRAR
Q: B5 was tested. Which “increase in binding affinity over the full-length d3 variant” value (MAT CR23 [4]) did it give?
A: 3 fold
